First the molecules themselves.
B1: Class 1 ligand 20 (ssRNA)
RNA: GGGAGACAAGAAUAAACGCUCAAGUCAUAAGCCUAACGGUCCCUAGUCAAUUGAACGAUCCUUCGACAGGAGGCUCACAACAGGC
modifications: 2'-F all pyrimidines
B2: Class 1 ligand 4 (ssRNA)
RNA: GGGAGACAAGAAUAAACGCUCAAUUUGGAAGAUCCCGGAGUCUCGUUGGUGUUGAACGAUUCUUCGACAGGAGGCUCACAACAGGC
modifications: 2'-F all pyrimidines
B3: Class 1 ligand 30 (ssRNA)
RNA: GGGAGACAAGAAUAAACGCUCAAAAGUCACUCGCAGCGCUUCCUGGUUCGAUUGAACGAUCCUUUCGACAGGAGGCUCACAACAGGC
modifications: 2'-F all pyrimidines
B4: Class 1 ligand 37 (ssRNA)
RNA: GGGAGACAAGAAUAAACGCUCAAUUUGGAAGGUCCUGAGUCUCGUUGGUCGUUGAACGAUCCUUCGACAGGAGGCUCACAACAGGC
modifications: 2'-F all pyrimidines
B5: Class 1 ligand 8 (ssRNA)
RNA: GGGAGACAAGAAUAAACGCUCAAGUGCCCUGUUAUCUUCCUCGAUCGAUUGAACGAUCCUUUCGACAGGAGGCUCACAACAGGC
modifications: 2'-F all pyrimidines
B6: Class 1 ligand 43 (ssRNA)
RNA: GGGAGACAAGAAUAAACGCUCAACCAGAUAAUCCCAAUGAGUCCCUCGAGAUUGAACGAUCCUUUCGACAGGAGGCUCACAACAGGC
modifications: 2'-F all pyrimidines
B7: Class 1 ligand 56 (ssRNA)
RNA: GGGAGACAAGAAUAAACGCUCAAUUUGGAAGAUCCCUGGAGUCUCGUUGGUCGUUGAACGAUCCUUCGACAGGAGGCUCACAACAGGC
modifications: 2'-F all pyrimidines
B8: Class 1 ligand 11 (ssRNA)
RNA: GGGAGACAAGAAUAAACGCUCAAUUUAGAAGAUCCCGGAGUCUCGUUGGUCGUUGAACGAUCCUUCGACAGGAGGCUCACAACAGGC
modifications: 2'-F all pyrimidines
B9: Class 1 ligand 18 (first SELEX) (ssRNA)
RNA: B8 RNA with A27C, G37U
modifications: 2'-F all pyrimidines
B10: Class 1 ligand 16 (ssRNA)
RNA: B8 RNA with U26C, A27G, G37A
modifications: 2'-F all pyrimidines
B11: Class 1 ligand 26 (ssRNA)
RNA: B8 RNA with A27G, G37U
modifications: 2'-F all pyrimidines
B12: Class 1 ligand 10 (ssRNA)
RNA: B8 RNA with U26C, A27G, C35A
modifications: 2'-F all pyrimidines
B13: Class 1 ligand 5 (ssRNA)
RNA: B8 RNA with U24A, A27G, A30G, G31U, G37U, C44U, A60G
modifications: 2'-F all pyrimidines
B14: Class 1 ligand 40 (ssRNA)
RNA: B8 RNA with U26C, A27U, G37A
modifications: 2'-F all pyrimidines
B15: Class 1 ligand 49 (ssRNA)
RNA: B8 RNA with A27G, G38A, A39G, G40A
modifications: 2'-F all pyrimidines
B16: 2nd generation ligand 98 (ssRNA)
RNA: GGGAGGACGAUGCGGGUUCCAGUAUUAGUUGAACGAUCCUUCUUAUCUGGAGUCCAGACGACUCGCCCGA
modifications: 2'-F all pyrimidines
B17: 2nd generation ligand 5 (ssRNA)
RNA: GGGAGGACGAUGCGGGUUUAAUCUCGGAUUGAACGAUCCUUUCUGUAAUUAGUCCAGACGACUCGCCCGA
modifications: 2'-F all pyrimidines
B18: 2nd generation ligand 72 (ssRNA)
RNA: GGGAGGACGAUGCGGAUUCGAUGUAGUUUGAACGAUCCUUGUAUAUAUCGGAUCAGACGACUCGCCCGA
modifications: 2'-F all pyrimidines
B19: 2nd generation ligand 73 (ssRNA)
RNA: GGGAGGACGAUGCGGGGUUUUCUAAGUGUUGAACGAUCCUUCACAUAGCGUGUCCCAGACGACUCGCCCGA
modifications: 2'-F all pyrimidines
B20: 2nd generation ligand 88 (ssRNA)
RNA: GGGAGGACGAUGCGGUUCGUUACGAUAAUUGAACGAUCCUUUUAUCUUUCAGUCCAGACGACUCGCCCGA
modifications: 2'-F all pyrimidines
B21: 2nd generation ligand 71 (ssRNA)
RNA: GGGAGGACGAUGCGGAUUCGAUUAGAGAUUGAACGAUCCUUUCAUCAGUUGGAUCAGACGACUCGCCCGA
modifications: 2'-F all pyrimidines
B22: 2nd generation ligand 49 (ssRNA)
RNA: GGGAGGACGAUGCGGUUCGUCAUCGCUAUUGAACGAUCCUUUAGCUGAUGGACCAGACGACUCGCCCGA
modifications: 2'-F all pyrimidines
B23: 2nd generation ligand 42 (ssRNA)
RNA: GGGAGGACGAUGCGGGUUCGAAACUUCCUUGAACGAUCCUUGGAUGUUUUGCUCAGACGACUCGCCCGA
modifications: 2'-F all pyrimidines
B24: 2nd generation ligand 86 (ssRNA)
RNA: GGGAGGACGAUGCGGUUCAACAACGUACUUGAACGAUCCUUGUGCUCGUUGAUCCAGACGACUCGCCCGA
modifications: 2'-F all pyrimidines
B25: 2nd generation ligand 19 (ssRNA)
RNA: GGGAGGACGAUGCGGUUUGACGUAUAAUUGAACGAUCCUUUUCUAGCUUAGACCAGACGACUCGCCCGA
modifications: 2'-F all pyrimidines
B26: 2nd generation ligand 25 (ssRNA)
RNA: GGGAGGACGAUGCGGUUCCUGAUUCAAGUUGAACGAUCCUUCCUGCUGUACGUCCAGACGACUCGCCCGA
modifications: 2'-F all pyrimidines
B27: 2nd generation ligand 14 (ssRNA)
RNA: GGGAGGACGAUGCGGUUCGACACGAAAGUUGAACGAUCCUUCUAUCUGUUGGACCAGACGACUCGCCCGA
modifications: 2'-F all pyrimidines
B28: 2nd generation ligand 74 (ssRNA)
RNA: GGGAGGACGAUGCGGUAAGUUCUAACUUUUGAACGAUCCUUGGCACCCUGACUACAGACGACUCGCCCGA
modifications: 2'-F all pyrimidines
B29: 2nd generation ligand 61 (ssRNA)
RNA: GGGAGGACGAUGCGGUUUAGUGUUUAGUUGAACGAUCCUUCUAACACCAGUCCCAGACGACUCGCCCGA
modifications: 2'-F all pyrimidines
B30: 2nd generation ligand 93 (ssRNA)
RNA: GGGAGGACGAUGCGGUUCUAGGUCGAAAUUGAACGAUCCUUUUUCGCUAUGGAUCAGACGACUCGCCCGA
modifications: 2'-F all pyrimidines
B31: 2nd generation ligand 20 (ssRNA)
RNA: GGGAGGACGAUGCGGUGUUCAUGCUUGAUUGAACGAUCCUUUCAUAGUGUUGGUCAGACGACUCGCCCGA
modifications: 2'-F all pyrimidines
B32: 2nd generation ligand 9 (ssRNA)
RNA: GGGAGGACGAUGCGGUUCUACACGAUAUUUGAACGAUCCUUGUAUCUUAGGUCCCAGACGACUCGCCCGA
modifications: 2'-F all pyrimidines
B33: 2nd generation ligand 23 (ssRNA)
RNA: GGGAGGACGAUGCGGGUUUAAUACAAAGUUGAACGAUCCUUCUUUGCAUUGGACCAGACGACUCGCCCGA
modifications: 2'-F all pyrimidines
B34: 2nd generation ligand 33 (ssRNA)
RNA: GGGAGGACGAUGCGGUUCGAUGGCCAUUUGAACGAUCCUUAUUAUCAACGGUCCAGACGACUCGCCCGA
modifications: 2'-F all pyrimidines
B35: 2nd generation ligand 10 (ssRNA)
RNA: GGGAGGACGAUGCGGAACACCAAUCUUUUUGAACGAUCCUUCGUGGGAGUGCAUCAGACGACUCGCCCGA
modifications: 2'-F all pyrimidines
B36: 2nd generation ligand 11 (ssRNA)
RNA: GGGAGGACGAUGCGGGAUUCUCUUUGAGUUGAACGAUCCUUCUCAUCGCACUUGCCAGACGACUCGCCCGA
modifications: 2'-F all pyrimidines
B37: 2nd generation ligand 89 (ssRNA)
RNA: GGGAGGACGAUGCGGUGCAUGAUUUAGUUGAACGAUCCUUCCAACUUCCAGCACAGACGACUCGCCCGA
modifications: 2'-F all pyrimidines
B38: 2nd generation ligand (SEQ 118) (ssRNA)
RNA: GGGAGGACGAUGCGGGUUCGACAUAAUCUUGAACGAUCCUUGAUUACUUGGUCCCAGACGACUCGCCCGA
modifications: 2'-F all pyrimidines
B39: 2nd generation ligand 52 (ssRNA)
RNA: GGGAGGACGAUGCGGGAUUUUCCGUUAAUUGAACGAUCCUUUUCACGGACUGCAGACGACUCGCCCGA
modifications: 2'-F all pyrimidines
B40: 2nd generation ligand 83 (ssRNA)
RNA: GGGAGGACGAUGCGGUUUGAUGAGGUAGUUGAACGAUCCUUCCAUCCGUUAGACCAGACGACUCGCCCGA
modifications: 2'-F all pyrimidines
B41: 2nd generation ligand 58 (ssRNA)
RNA: GGGAGGACGAUGCGGUCUUAAGUUUGAAUUGAACGAUCCUUUUCUUCCAGGCAACAGACGACUCGCCCGA
modifications: 2'-F all pyrimidines
B42: 2nd generation ligand 91 (ssRNA)
RNA: GGGAGGACGAUGCGGUUCAUUUUUGUGUUGAACGAUCCUUCACUAACCUACCACAGACGACUCGCCCGA
modifications: 2'-F all pyrimidines
B43: 2nd generation ligand 69 (ssRNA)
RNA: GGGAGGACGAUGCGGGUUUCACUUCAAGUUGAACGAUCCUUCUUGGCUUGAGCACAGACGACUCGCCCGA
modifications: 2'-F all pyrimidines

Changes are numbered by the printed parent chain.

In one series the target is T1, human chorionic gonadotropin (hCG) heterodimer (Homo sapiens, UniProt P01215;P0DN86 P01215:25-116,P0DN86:21-165). Put plainly: filter. The note with it: tags: Calbiochem or Vitro Diagnostics (14,000 IU/mg); chain copies: alpha/beta heterodimer (stated); label: 32P.
T1 sequence (P01215 25-116, chain 1 of 2, other chains not shown): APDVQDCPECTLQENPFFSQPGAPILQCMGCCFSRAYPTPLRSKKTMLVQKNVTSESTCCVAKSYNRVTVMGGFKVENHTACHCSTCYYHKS
B1 gave a binding signal of 0.13 % bound at 100 nM.
Still for that read-out and setting: as for B2, the figure is 4.81 % bound at 100 nM.
On the same count and under the same terms, as for B3, the figure is 0.58 % bound at 100 nM; as for B4, 1.89 % bound at 100 nM.
The same measure, in the same setting: as for B5, the figure is 0.98 % bound at 100 nM; as for B6, 0.93 % bound at 100 nM; as for B7, 3.85 % bound at 100 nM.
The molecule B8 displayed a binding signal of 3.09 % bound at 100 nM.
Still for that read-out and setting: in the case of B9 it was 2.69 % bound at 100 nM; in that of B10, 5.41 % bound at 100 nM.
Still for that read-out and setting: as for B11, the figure is 3.34 % bound at 100 nM; as for B12, 3.59 % bound at 100 nM; as for B13, 1.26 % bound at 100 nM.
On the same count and under the same terms, as for B14, the figure is 2.2 % bound at 100 nM.
B15: the binding signal was 3.77 % bound at 100 nM.

In the next series the target is T1, human chorionic gonadotropin (hCG) …. The series is described as follows: filter. The note with it: tags: Calbiochem or Vitro Diagnostics (14,000 IU/mg); chain copies: alpha/beta heterodimer (stated); label: 32P. This is another data set of the same source.
Regarding B16, the binding signal stood at 11.7 % bound at 100 nM.
Regarding B17, the binding signal amounted to 3.14 % bound at 100 nM.
Still for that read-out and setting: as for B18, the figure is 0.3 % bound at 100 nM; as for B19, 0.84 % bound at 100 nM.
Still for that read-out and setting: in the case of B20 it was 0.32 % bound at 100 nM; in that of B21, 6.99 % bound at 100 nM; in that of B22, 14.4 % bound at 100 nM.
The same measure, in the same setting: as for B23, the figure is 0.54 % bound at 100 nM; as for B24, 0.57 % bound at 100 nM.
In the case of B25, the binding signal stood at 8.52 % bound at 100 nM.
Same read-out and setting: in the case of B26 it was 0.28 % bound at 100 nM; in that of B27, 15.4 % bound at 100 nM.
B28 displayed a binding signal of 11.5 % bound at 100 nM.
B29: the binding signal came to 15.5 % bound at 100 nM.
The same measure, in the same setting: in the case of B30 it was 7.25 % bound at 100 nM.
Same read-out and setting: in the case of B31 it was 8.37 % bound at 100 nM; in that of B32, 9.98 % bound at 100 nM.
B33 showed a binding signal of 13 % bound at 100 nM.
Still for that read-out and setting: in the case of B34 it was 0.59 % bound at 100 nM.
Still for that read-out and setting: in the case of B35 it was 0 % bound at 100 nM; in that of B36, 10 % bound at 100 nM.
The same measure, in the same setting: as for B37, the figure is 0.21 % bound at 100 nM; as for B38, 13 % bound at 100 nM; as for B39, 6.01 % bound at 100 nM.
Molecule B40 came in with a binding signal of 4.48 % bound at 100 nM.
On the same count and under the same terms, in the case of B41 it was 0 % bound at 100 nM; in that of B42, 2.36 % bound at 100 nM.
B43: the binding signal amounted to 18.8 % bound at 100 nM.

These data come from US5849890, “High affinity oligonucleotide ligands to chorionic gonadotropin hormone and related glycoprotein hormones” (NeXstar Pharmaceuticals, Inc.).
